Source: article PMC7537385

Biological target: Exoc7-sfGFP (mouse, endogenously tagged) (mouse (endogenous in normal murine mammary gland cells)) (UniProt O35250)
Assay: co-IP

UniProt O35250, sequence (O35250 whole entry): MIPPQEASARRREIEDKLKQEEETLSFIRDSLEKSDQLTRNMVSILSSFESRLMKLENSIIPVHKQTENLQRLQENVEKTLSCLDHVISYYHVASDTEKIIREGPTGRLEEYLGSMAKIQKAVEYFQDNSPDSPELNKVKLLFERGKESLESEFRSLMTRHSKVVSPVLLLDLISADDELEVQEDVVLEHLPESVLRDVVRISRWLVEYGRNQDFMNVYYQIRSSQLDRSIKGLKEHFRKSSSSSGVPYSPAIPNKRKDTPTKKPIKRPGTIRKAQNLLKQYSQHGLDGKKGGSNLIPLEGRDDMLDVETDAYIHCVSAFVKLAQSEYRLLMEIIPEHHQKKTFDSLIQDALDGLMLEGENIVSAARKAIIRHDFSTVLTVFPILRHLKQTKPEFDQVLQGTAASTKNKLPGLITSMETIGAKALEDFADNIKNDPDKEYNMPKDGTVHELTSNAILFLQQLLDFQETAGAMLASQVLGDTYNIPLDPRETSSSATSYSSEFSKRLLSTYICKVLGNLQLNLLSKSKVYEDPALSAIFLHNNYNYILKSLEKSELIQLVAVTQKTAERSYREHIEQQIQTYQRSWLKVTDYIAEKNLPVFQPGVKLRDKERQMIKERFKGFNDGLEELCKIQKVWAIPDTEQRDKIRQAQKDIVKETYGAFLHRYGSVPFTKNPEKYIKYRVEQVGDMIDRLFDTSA

Question: For “Exoc2 truncated, ~48-kD N-terminal fragment (mouse) (domain or fragment)”, which percent coprecipitated with Exoc7-GFP is on record?
Answer: 53%
